target: His-tagged Sam68 (Src-associated in mitosis, 68 kDa) (human (cDNA from HEK293T cells), UniProt Q07666 1-443); assay: ELISA
Sequence (Q07666 whole entry): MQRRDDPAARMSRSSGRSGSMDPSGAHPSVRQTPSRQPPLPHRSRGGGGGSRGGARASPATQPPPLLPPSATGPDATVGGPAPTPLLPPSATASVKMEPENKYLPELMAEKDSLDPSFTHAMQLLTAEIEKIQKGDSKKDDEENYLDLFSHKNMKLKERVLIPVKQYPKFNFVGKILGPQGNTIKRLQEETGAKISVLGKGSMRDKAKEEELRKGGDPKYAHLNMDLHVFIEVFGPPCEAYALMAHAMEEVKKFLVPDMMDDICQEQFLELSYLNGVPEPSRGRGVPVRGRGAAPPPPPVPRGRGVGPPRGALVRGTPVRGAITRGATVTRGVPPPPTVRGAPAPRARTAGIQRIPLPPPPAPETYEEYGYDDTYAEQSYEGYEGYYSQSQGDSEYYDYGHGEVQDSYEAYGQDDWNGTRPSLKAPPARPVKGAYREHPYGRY

Row | Binder | Kd [nM]
1 | SH3 domain from Yes, displayed on M13 phage (domain or fragment) not shown | 5.5
2 | SH3 domain from Lyn, displayed on M13 phage (domain or fragment) EQGDIVVALYPYDGIHPDDLSFKKGEKMKVLEEHGEWWKAKSLLTKKEGFIPSNYVAKLNT | 7.9
3 | SH3 domain #2 from Nck1, displayed on M13 phage (domain or fragment) DLNMPAYVKFNYMAEREDELSLIKGTKVIVMEKCSDGWWRGSYNGQVGWFPSNYVTEEGD | 31
4 | SH3 domain #3 from Intersectin 2, displayed on M13 phage (domain or fragment) SVGEEYIALYPYSSVEPGDLTFTEGEEILVTQKDGEWWTGSIGDRSGIFPSNYVKPKDQ | 59
5 | SH3 domain from Hck, displayed on M13 phage (domain or fragment) not shown | 31
6 | SH3 domain from p85α, displayed on M13 phage (domain or fragment) AEGYQYRALYDYKKEREEDIDLHLGDILTVNKGSLVALGFSDGQEARPEEIGWLNGYNETTGERGDFPGTYVEYIGR | 13
7 | SH3 domain from Osteoclast stimulating factor 1, displayed on M13 phage (domain or fragment) GQVKVFRALYTFEPRTPDELYFEEGDIIYITDMSDTNWWKGTSKGRTGLIPSNYVAEQAE | 22
8 | SH3 domain from Fyn, displayed on M13 phage (domain or fragment) not shown | 41
